Results as given in the domain aggregation screens of Martell et al. (2025).

experiment: soluble fraction after stress (log2 fold change); higher = more stays soluble; pooled small domains, quantitative proteomics; settings: stress: pH 4
Summary of the method: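 With high-throughput quantitative proteomics, pooled custom libraries of small protein domains were measured after pH 4 stress. Each domain's soluble amount after the stress gives a fold change taken as aggregation propensity. Higher log2 values mean more of the domain stayed soluble.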

Sequence	soluble fraction (log2)
HMVFRFELQPSSATPLYRQIVEQVTRAVAAGVLRDGEELPSVRAVAQEYVINPMTVSKAYSLLEAQSI	-0.34
HMVFSNLGSRGEEVRQIQTKLKELGYLQGNVDGIYGNQTKQAVTAFQRDHGLSADGIAGEKTLAALGIG	0.105
HMVGAEDISKPMNLGALMRTAHAFGASFFFTINAHPKVRHAYNSDTSRSFDHMPYYPWDTMEE	-0.287
HMVGDLPPQELRVFELIGDGLSNREIADEMILAEKTIKNYVTSLLQKLGMQRRTEAAAFAARLDER	-0.607
HMVGDMLTQKDSEGLTAYLYQQGIISQREMLLLNGILKDRVLTGMEKGQRDSVRASMVQHLLAMLNMM	-1.55
HMVGEQISYIPLKFATASEVVKSLTSMFQQQKGIAPIRIVAEERTNAILLLASEADTARVKNLIAMMDKGV	-0.0978
HMVGGIAIGQFNVPRGSVKVTAGGRLLQEGLDYTVNYQAGRVQILDESLKNSNVPIEISTESNS	-0.111
HMVGMDRYFKIKNIKDSSAAFERDYILHFLKENDWMVSKTAQMIGLERTTLYKKIKQLGLASMLEN	-0.386
HMVGQIISNARKQEKMTQSELAEKVGTNKTYISRIEKGVIEPGVGLFFRIIDALGLKIEIVKP	-0.362
HMVHSEDLQDHKYVSQLGEVFLKENPNYENIKKSWGDHMVVIKKFGRYPHRNKILNRKSTPEELEFLKG	-0.115
HMVILPGEKMVVKIVQPGKEKGQGVGYLADGTMIVVDSGDKMIGQDVPTEITRVFQTVAGKMLFAVPVD	-0.255
HMVIMDLIVNGEPKYVVGEQLHLILDELGYSGKHFVVELNGEILSKEAYTTTKLTAADRLEIVSFVGG	-1.72
HMVITATYTDFMDALEADEVKQVQFSSTEINYTIEKGGHVQYFKTGVVDNPQLPQILREKGVTYAAEIP	-0.023
HMVITDPFFLEPENLVKDAVALMEKYRISGVPITKKGKLVGILTNRDLRFESNYEQPIANVMS	-0.363
HMVITISEADVSGTYTKSITQGDWKYIRTWTPFEDERLYDLAKDPMELRDLAPAAPSKLAELRELLSALVS	-1.56
HMVIVMRKDADAASIEKVVSEVKSRGFMPHVSEGESRTLIGAIGPAPTEELREHFAGLAGVETVVRITK	-0.0319
HMVKDIEFSLPLEQDYYKVLISVKDSQGKRQVYEELHRAGDTVYAAVRYYGSGELEIHLNGKFYKTIK	-1.6
HMVKDLEIETIRLNNLLASDAEEVLKSLGGAKPTYKAVAVPGSNSLVIEGTKADLIKLKSIINALEDGS	-0.316
HMVKETNYSFFLKQIDAGTVEQVQIEDTEIKFKVSTADGKEQVYSTVRVEDPDLVDRLYSKGNIDFTGN	-1.3

Sequence	soluble fraction (log2)
HMVKIIHYEVYANRGDGWKLVDQFSADQRQEAVNLAKEIETEDQVAVKIIREIFDVQDNTYQESVEYIG	-0.804
HMVKLDDLTGQDKATAEATITNSGLKYSEQQEFSDEVEAGKVIRTDPGAGTSSLKAGDTVTVYVSRGPEN	-0.0896
HMVKNYYEILEVDKKASPEVIEKAYKTLAKKYHPDLQEAENNGQYEEKMKEINEAYSVLSDEFKRRTYDEQ	0.103
HMVKSYEVPDVSNLTVLEAEAKLQEMGFEIDEEQKEISSSDIESGRVVKTSPQAGSKRKEGAIITLYVSSG	-0.433
HMVKTANVAYSEFLKLVESDNISDVSIVGRTITGHLDDGTKFSTYTPPNDPSLIDKLTRKNVIIKSAPE	0.181
HMVKVEVKPNVLQWVIKRMDNFDRLKDQFPNIDKWINQESQPTLKQLEKLAKMTAVPLGYFFLPNPPEEK	-0.507
HMVLELRIGQIVRGVLLQLVGEREGIVSVGGVPVRARLEAEIPLGRGVMLQVQPGSDANNILLKPV	-0.139
HMVLENLKKFIDSKGISVSAFEKSIGMSNNSFRKSLNSGGHIGSDKLENILKIYPELNPVWLLQGEGEML	-0.0839
HMVLGSSVAMGQKIGDSDLTWVEVPLSSAFDRFLSEPEWRGSSDLVAARLLEAGVFLTEDDVVE	0.136
HMVLLGAAIRELRIQKGITIEELAEMSGLSTGLISKIERDLGNPSISSLRKISRALGVPTAFFFA	-0.744
HMVLSKGAKELLDFIMREGEVTTSKVVQKFGGSAQNASAKLKKLYATGLILGSKAVAESGGLEFVYKA	0.1
HMVLSVRERMGIVLEKVNTETFTDFKELFTVEEGRAGAIVSLLAILQLMKDSLIQLVQNEPNGPIYVKAA	0.22
HMVLTSFHDNFPKTGTTYTVRSGDTISGIATKFGSTRDWIQNANEISHPKYLQVGRTLFIPH	0.22
HMVMATPHNTAKAGDIAKTVIMPGDPLRAKYIADNYLDNAVQFNVVRNIYGYTGVYRGTDISVMASGM	0.0409
HMVMETLAERINTALQTKGLSVNALARRVGVSYPAMRKITKGETLNPKFLFEIAEALGVSVEWLKTGEGSP	0.0978
HMVMNKQEFLKILRDTLQSQLSSRETENHVEYYRTYIEEQMREGKTEIEILDVLGDPRLIARTILET	-0.253
HMVMSTDAELILEYLAKHQGEMEITDKSSPELIMDTFNMSKGAFKRALGSLYKSKTVVIESTKVLLNT	-0.0971
HMVNDQSIYASEGYVHIRSGKPVSLRIYTILGALYRHEERLVGDHVIALPRGLYIVVLNHTAKKIMV	0.021
